Source: the DeepSol protein solubility set

Assay: soluble on expression in E. coli; label from the status in PepcDB or PDB records
With “HHHHHHMAKKVNWYVSCSPRSPEKIQPELKVLANFEGSYWKGVKGYKAQEAFAKELAALPQFLGTTYKKEAAFSTRDRVAPMKTYGFVFVDEEGYLRITEAGKMLANNRRPKDVFLKQLVKWQYPSFQHKGKEYPEEEWSINPLVFVLSLLKKVGGLSKLDIAMFCLTATNNNQVDEIAEEIMQFRNEREKIKGQNKKLEFTENYFFKRFEKIYGNVGKIREGKSDSSHKSKIETKMRNARDVADATTRYFRYTGLFVARGNQLVLNPEKSDLIDEIISSSKVVKNYTRVEEFHEYYGNPSLPQFSFETKEQLLDLAHRIRDENTRLAEQLVEHFPNVKVEIQVLEDIYNSLNKKVDVETLKDVIYHAKELQLELKKKKLQADFNDPRQLEEVIDLLEVYHEKKNVIEEKIKARFIANKNTVFEWLTWNGFIILGNALEYKNNFVIDEELQPVTHAAGNQPDMEIIYEDFIVLGEVTTSKGATQFKMESEPVTRHYLNKKKELEKQGVEKELYCLFIAPEINKNTFEEFMKYNIVQNTRIIPLSLKQFNMLLMVQKKLIEKGRRLSSYDIKNLMVSLYRTTIECERKYTQIKAGLEETLNNWVVDKEVRF” the “soluble on expression in E. coli” value was “soluble”. In the case of “MGSDKIHHHHHHMSRPKILYFITEDWYFCSHRLPLALAARDAGYDVAVVTNVNEHADVIRRAGIRLIPFDLSRKGMNPASELAVLARLIALYRKEKPDIVHQVAMKPVLYGSLAARLSGVSRVVNALAGLGYIFTSDQPKARFLRPVIGSAFRGLLNSRRSRLILQNQDDRAKFIRKRFISEKRIRLIRGSGVDTAVFVPTPEPPGVPVVILPSRMLWDKGVREFVDAAGQLKKRGISARFVLVGDADPHNPSAIHTEQLTAWHAEGAVEWWGRRDDMPAVFEQSHIVCLPSYREGLPKVLLEAASCGRPIVTTDTPGCRDVVRQGENGLLVPVRGTAELADALQLLIEQPALRKKMGCKGREIVVSEFALEKVVAKTMNIYRELLKP”, the “soluble on expression in E. coli” value is reported as “not soluble”. In the case of “AQNSTVKINGLTLVQSSNQLNEAITGVTIDLKKAEIGKIVTLTVDDNKDQLTGLINEFIKQYNDTMTFLTNLTGYNNETKQGGVFQGDPQFRNLKLNLNKWATTPLANQEGPIRSLADLGIITNKQGLLEIKQDKFKTALDNHYKEIGALFAKTAKANDTGINVKSINSTVKSGTYDVVLTEFTPGVSMSGTIGGLSAISSDGITLTGSADLSGLSINVFSGSAGSRGQITVTDGIAVQLSSLLDAYIEIKGDLEQRKDQLNNQVKQLNKIQNEIDIRRKSIETRYLKQFTALDTLLSQLQS”, the “soluble on expression in E. coli” value is reported as “soluble”. With “MQTVGSFSEFLDDMVGRYGPRPAIQYRPRYRTLRWSYLELGTHAAKLASLLDEHGVGSGDRVFLSAENSPHWVAAFFAIAARGAVIVPLNPRSPPEQLANLVRSAGPSLVLASPRRRWEGPPLPVVDIERSGRVPSNRPATRTGPARLAEIIYTSGTTGDPKGVMLTHANLLSDLSAVARAIPLAPDDHVLSLVPLFHVYGQMTSLFCPLAAGCPVSYLTTPTTRSVLEALTHTPVTHLVAVPEVLKTMMDRLESRIGRIPGFLWPLLRGRIRARISGSLRTIVCGGAPLDPVVEEKWWALGFQVLQGYGLTETSPVIAANTPQAHRIGSVGKPLDEVELRIASDGEILVKGPMVMAGYFRDPARTEAAFADGWLKTGDAGRLDADGFLYVYGRKRYMILGPGGENVFPEDIEAVLNRTAGVTDCAVVGLESGGRTLVHAVLLADADEARAAAIVAEANRHLAPHQRIVSWSLWPEPDFPRSVTRKVKKDEVLGRLRREPSTQAVPVGRSTPLRLLLAQVAGTEAGALSDDTRLVPDLGLDSLLRIELVARIEEDLGVCLDEIDIGPLTTVADLENLLVRRQDRMPRVDAHPRWSLSPWASRLRPLAQKVFLQWWIAPFCRLRVSGLEHLAALDGPVIFMANHRSYLDSAVASFALPDRFRYRLAIAAATGVLYTRYRWAVPIGELSLNAFPLPSGPDENIRPGLELIGRLLDDGWNVLIFPEGQMNRGGLGIQPLRRGAGTIGVDMGVPVVPLVIEGTEKVMPPGRIVPRAAAPVSVRFGAPLRAGEAEPHGRMLARIEDALRRLLENSPLEHHHHHH” the “soluble on expression in E. coli” value was “not soluble”. With “MKNFVRTTLLAATLAGVSFGAFATAVPNPPLPAQDPIVQHLKLTNDQITRIKKLHQQLETDVSQISMKGIKDGALIEVIKSGKWDDAAVKQQLAAFSNIEQQARYYRVKYYFDLSKVLTPEQRQQVQQDLAQALE” the “soluble on expression in E. coli” value was “not soluble”. For “MAQLENQILETLKPLIDANTGKSYVAAKNVKNLKCGDAEISLDVVLAYPAKSQFDAVRQQFEAALAPLAEGRAIKIAVSAQIVSHSAQRGVPLLPGVKNVIAVASGKGGVGKSTTAANLALALADEGARVGLLDADIYGPSQPLMMGLQGQRPETADGKLTPLSNHGIQTMSIGYLVDADQAMVWRGPMVSQALQQLLNDTRWDDLDYLVIDMPPGTGDVQLTLSQKVPVTGALIVTTPQDIALLDARKGVTMFQKVGVPILGLVENMAIHVCSNCGHAEHIFGEGGAVKMAQDFGVELLGSLPLDLAIRQAVDEGRPSVAADPSGKPAELYRAIARRVAVKVGEKAQDFSGKFPKIVIQNNLEHHHHHH”, the “soluble on expression in E. coli” value was “not soluble”. For “MSLNLLFTGASGFLGYNVLPLLKKKYSVETIGLTSQDDYIVNLAAEIPKLAGKYDVILHVAGKAHSLPKTEAEKRLFFDVNLQGTKNLCTALEQSGIPKSFIFISTVAVYGCDSGENITEEYPLNGTTPYALSKIKAEKYLEEWCAMHNVKLSILRPSLIAGPNPPGNLGAMIHGIKSGKYLSIAGGKAQKSVLMVQDIANLVPLLIEKGGIYNVCDSYQPSFRELEMVICKQLNKKLPLSIPYWFAKSMAVFGDCFGEKAPINSLKLRKITHSLTFSNEKAMRELGWKPMNVLKNFREGHHHHHH”, the “soluble on expression in E. coli” value was “soluble”. With “MEKTVIGVVHLLPLPGSPEHTDLSAVIDKAVKDARAIEEGGADALILENYGDKPFLKEVGKETVAAMTVIACEVKRDVSIGLGINVLRNDAVAALAIAKAVNADFVRVNQLFFTSVSPEGILEGKAGEVMRYKKLVDCRAMIFADIAVKHAVHFASLEDYCLNAERSLADAVILTGKTTGGEVSLEELKYAKKTLKMPVLAGSGVNAENAARILKWCDGVIVGTYIKRGGLVDAERVRRIVRAAKGLEHHHHHH” the “soluble on expression in E. coli” value was “not soluble”. In the case of “MKAVIFIMDGLGDRPNKDGNTPLKEAKTPVMDKMAKDGICGLMNAVDVGVRPGSDTAHLAILGYDPYTTYTGRGPFEACGVGVTVKPGDIAFRCNFSSVNENFIVTDRRAGRIEDTSELEKELDGLKIDDIDIIFKESGGYRAALVLRGPGLSDKISDADPKKEGKRVKEIHPLDNSKEAKKTAEIVNKLLKIAYEKLDKHPVNEERRKQNLPVANMIVPRGVGQVPEIMQFSEKTGLKGACIAGTGLIKGIAKMVGLDVIDVEGCDGTPNSDLMAKACAIVETLKDYDFILVNVKGADEAGHDGNYELKKEIIEKIDEMLDYITKNIDKDEVYIAMSGDHSTPIEEMDHSADPLPILIWGKSVRVDDVEKFDEFSTYKGGLNWIKGTNIMPILMDLMSIAKKYGA”, the “soluble on expression in E. coli” value is reported as “not soluble”. In the case of “MIWNETIECMDRESLRKIQSIRLKKIVDYVYHNTPFYRKKMQEMGITPDDINTIDDIVKLPFTTKHDLRDNYPFGLCAVPMSQIVRIHASSGTTGKPTVVGYTRKDLSSWAECISRAFTAYGAGRSDIFQVSYGYGLFTGGLGAHAGAENIGASVIPMSSGNTEKQITLMHDFGSTVLCCTPSYALYLADAIKDSGYPREEFQLKVGALGAEPWTENMRHEIEEKLGIKAYDIYGLSEIAGPGVGYECECQHGTHLNEDHYFPEIIDPNTLQPVEPGQTGELVFTHLTKEGMPLLRYRTRDLTALHYDKCSCGRTLVRMDRILGRSDDMLIIRGVNVFPTQIESVILEMEEFEPHYLLIVGRENNTDTMELQVEVRPDFYSDEINRMLALKKKLASRLQSVLGLGVNVKLVEPRSIERSVGKAKRVIDNRKI”, the “soluble on expression in E. coli” value is reported as “not soluble”. With “MGSDKIHHHHHHMSESHLYTYGIIDDNESLALNVDGVAGATRAYTVSYRSLSAVVSDIETTDPERTDAAVEAHNTVLQAVLEHDATRAVVPMSFGMAFKNARTLKGVLRGARRALRSTLTEIAGTVELGVKVLAPGDDTAVDTAAVRSDVTARLSALSVGETENDCFTDRLIINKSYLVEHDTRDAFDAAIDEIDAAHDDLTVRYTGPWPPYNFVDIHIGAEQAQQGGR” the “soluble on expression in E. coli” value was “not soluble”. With “MMSTSDRSRLPLVYACSGCSSVAQLANAFAVRLDRSGQAEMSCISGVGGRVPALTRIAQSGRPILAIDGCQLACVKACLEGVGVVASRHLVLNRIGATKRQHGECTEAEEAATWQSIKLALSEILPVSESVVSN” the “soluble on expression in E. coli” value was “soluble”. In the case of “MGSDKIHHHHHHMKILVYGINYSPELTGIGKYTGEMVEWLAAQGHEVRVITAPPYYPQWQVGENYSAWRYKREEGAATVWRCPLYVPKQPSTLKRLLHLGSFAVSSFFPLMAQRRWKPDRIIGVVPTLFCAPGMRLLAKLSGARTVLHIQDYEVDAMLGLGLAGKGKGGKVAQLATAFERSGLHNVDNVSTISRSMMNKAIEKGVAAENVIFFPNWSEIARFQHVADADVDALRNQLDLPDNKKIILYSGNIGEKQGLENVIEAADRLRDEPLIFAIVGQGGGKARLEKMAQQRGLRNMQFFPLQSYDALPALLKMGDCHLVVQKRGAADAVLPSKLTNILAVGGNAVITAEAYTELGQLCETFPGIAVCVEPESVEALVAGIRQALLLPKHNTVAREYAERTLDKENVLRQFINDIRG”, the “soluble on expression in E. coli” value is reported as “not soluble”. For “GMTILSDVKALGQQIWLDNLSRSLVQSGELAQMLKQGVCGVTSNPAIFQKAFAGDALYADEVAALKRQNLSPKQRYETMAVADVRAACDVCLAEHESTGGKTGFVSLEVSPELAKDAQGTVEEARRLHAAIARKNAMIKVPATDAGIDALETLVSDGISVNLTLLFSRAQTLKAYAAYARGIAKRLAAGQSVAHIQVVASFFISRVDSALDATLPDRLKGKTAIALAKAAYQDWEQYFTAPEFAALEAQGANRVQLLWASTGVKNPAYPDTLYVDSLIGVHTVNTVPDATLKAFIDHGTAKATLTESADEARARLAEIAALGIDVETLAARLQEDGLKQFEEAFEKLLAPLV”, the “soluble on expression in E. coli” value was “soluble”. For “MGHHHHHHSHMLKDFLKEQGFEVRENHEVDAVIIGQDKEIEFKKIKNATSAVFLKGAKIIPVNLSKIVKDSDGLYFPGSGSYAYMFKHATNYEGEIPNLGKPSKEFINLALEGLPREKVFLISDDIYTDLMGAKELGIGTIFMTTGKYKQEELKKANFKPDYVFHSLKELMREIKKWLS”, the “soluble on expression in E. coli” value was “not soluble”. In the case of “MSLTGQLHPAVRVADLLQHINQMKTAEGYGFKQEYESFFEGWDATKKKDKVKGSRQEPMPAYDRHRVKLHPMLGDPNADYINANYIDGYHRSNHFIATQGPKPEMVYDFWRMVWQEHCSSIVMITKLVEVGRVKCSRYWPEDSDTYGDIKIMLVKTETLAEYVVRTFALERRGYSARHEVRQFHFTAWPEHGVPYHATGLLAFIRRVKASTPPDAGPIVIHCSAGTGRTGCYIVLDVMLDMAECEGVVDIYNCVKTLCSRRVNMIQTEEQYIFIHDAILEACLCGETTIPVSEFKATYKEMIRIDPQSNSSQLREEFQTLNSVTPPLDVEECSIALLPRNRDKNRSMDVLPPDRCLPFLISTDGDSNNYINAALTDSYTRSAAFIVTLHPLQSTTPDFWRLVYDYGCTSIVMLNQLNQSNSAWPCLQYWPEPGRQQYGLMEVEFMSGTADEDLVARVFRVQNISRLQEGHLLVRHFQFLRWSAYRDTPDSKKAFLHLLAEVDKWQAESGDGRTIVHCLNGGGRSGTFCACATVLEMIRCHNLVDVFFAAKTLRNYKPNMVETMDQYHFCYDVALEYLEGLESREGHHHHHH”, the “soluble on expression in E. coli” value is reported as “soluble”.
